Results reported in PMC6951436.

What was measured:
[1] = target: pyruvate kinase liver isoform (PKL) (UniProt P12928); assay: native PAGE of oligomeric state; conditions: reference: non-phosphorylated PKL (WT); sites S113
[2] = target: pyruvate kinase liver isoform (PKL) (UniProt P12928); assay: size-exclusion chromatography of oligomeric state; conditions: reference: non-phosphorylated PKL (WT); sites S113

Sequence of pyruvate kinase liver isoform (PKL) (from UniProt P12928-2) PKL pS113 proteoform (P12928 whole entry, looked up, stated change not applied, canonical isoform): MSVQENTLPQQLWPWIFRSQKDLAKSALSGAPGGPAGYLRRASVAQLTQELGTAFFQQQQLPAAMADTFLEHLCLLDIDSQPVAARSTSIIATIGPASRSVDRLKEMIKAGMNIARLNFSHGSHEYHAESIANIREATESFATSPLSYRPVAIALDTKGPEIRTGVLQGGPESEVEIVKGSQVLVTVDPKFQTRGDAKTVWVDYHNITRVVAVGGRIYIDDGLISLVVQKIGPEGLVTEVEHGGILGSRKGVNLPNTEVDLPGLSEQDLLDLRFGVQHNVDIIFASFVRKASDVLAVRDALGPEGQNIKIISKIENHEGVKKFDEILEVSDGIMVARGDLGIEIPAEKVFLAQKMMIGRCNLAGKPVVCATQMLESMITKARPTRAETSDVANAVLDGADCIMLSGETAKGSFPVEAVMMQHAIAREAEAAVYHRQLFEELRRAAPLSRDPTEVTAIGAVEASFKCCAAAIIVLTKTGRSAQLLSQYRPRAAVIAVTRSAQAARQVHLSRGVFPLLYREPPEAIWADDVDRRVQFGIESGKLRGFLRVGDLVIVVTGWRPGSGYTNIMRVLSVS
Sequence of pyruvate kinase liver isoform (PKL) (UniProt P12928) (P12928 whole entry, looked up, canonical isoform): as the sequence (P12928 whole entry, looked up, stated change not applied, canonical isoform) above

pyruvate kinase liver isoform (PKL) (from UniProt P12928-2) PKL pS113 proteoform
binding against the reference [1]: same
binding against the reference [2]: same
